# Data: US20230391850A1
# How the values were obtained:
# [1] = target: human polyclonal IgG (Gammanorm) (human); test: Biacore SPR, remaining IgG binding capacity after 100 NaOH cycles as a ratio to the reference ligand SEQ ID NO: 12
# [2] = target: human polyclonal IgG (Gammanorm) (human); test: Biacore SPR, ligand on CM5 chip, 1 mg/ml human polyclonal IgG flowed over; signal left after 100 cycles of 10 min in 0.5 M NaOH
# [3] = target: human polyclonal IgG (Gammanorm) (human); test: Biacore SPR, reference ligand on CM5 chip, 1 mg/ml human polyclonal IgG; signal left after 100 cycles of 10 min in 0.5 M NaOH (run beside SEQ ID NO 9)
# [4] = target: human polyclonal IgG (Gammanorm) (human); test: Biacore SPR, reference ligand on CM5 chip, 1 mg/ml human polyclonal IgG; signal left after 100 cycles of 10 min in 0.5 M NaOH (run beside SEQ ID NO 8)
Substance,Capacity relative to Ref [1],Capacity after 100 cycles (remaining IgG binding capacity) [2] [%],Reference capacity after 100 cycles (remaining IgG binding capacity) [3] [%],Reference capacity after 100 cycles (remaining IgG binding capacity) [4] [%]
"Zvar(Q9A, N11R, Q40V, A42K, N43A, L44I)1 (designed binder)",1.14,74,,
"Zvar(Q9A,N11E,Q40V,A42K,N43A,L44Di (SEQ ID NO: 12) (designed binder)",,,64,65
"Zvar(Q9W, N11E, Q40V, A42K, N43A, L44I)1 (designed binder)",1.09,70,,
